Source: patent US20030022292A1

Biological target: CEACAM1 (carcinoembryonic antigen-related cellular adhesion molecule 1) on human CD4+ T lymphocytes and Jurkat cells (human) (UniProt P13688)
Test: cell-based or functional assay

UniProt P13688, sequence (P13688 35-526): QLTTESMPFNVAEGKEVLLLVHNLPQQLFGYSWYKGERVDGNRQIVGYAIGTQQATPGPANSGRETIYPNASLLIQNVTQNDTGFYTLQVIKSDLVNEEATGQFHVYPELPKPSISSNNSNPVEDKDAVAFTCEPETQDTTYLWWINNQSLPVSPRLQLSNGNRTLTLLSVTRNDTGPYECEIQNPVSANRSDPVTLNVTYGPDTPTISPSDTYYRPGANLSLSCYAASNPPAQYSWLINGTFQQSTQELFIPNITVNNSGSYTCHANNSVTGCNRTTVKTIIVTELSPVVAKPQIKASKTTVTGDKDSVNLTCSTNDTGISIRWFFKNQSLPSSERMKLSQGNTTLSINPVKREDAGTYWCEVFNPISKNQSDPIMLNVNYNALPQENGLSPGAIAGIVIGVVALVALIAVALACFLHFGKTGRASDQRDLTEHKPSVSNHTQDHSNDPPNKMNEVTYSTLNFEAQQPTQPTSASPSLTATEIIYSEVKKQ

Substance	reduction of IL-2-dependent CD4+ T lymphocyte proliferation at MOI=50, relative to Opa50-expressing gonococci [%]	reduction of IL-2-dependent CD4+ T lymphocyte proliferation at MOI=100, relative to Opa50-expressing gonococci [%]	reduction of IL-2-dependent CD4+ T lymphocyte proliferation at MOI=200, relative to Opa50-expressing gonococci [%]	lowest multiplicity of infection at which inhibition of Jurkat proliferation was apparent (MOI (bacteria/cell))
Opa52 protein of Neisseria gonorrhoeae strain MS11, expressed on gonococcal strain N309 (ligand)	34	51	76	–
Opa57 protein of Neisseria gonorrhoeae strain MS11, expressed on gonococcal strain N313 (ligand)	–	–	–	25
